# Test results taken from article PMC6123443, “Selective Pressure for Biofilm Formation in Bacillus subtilis: Differential Effect of Mutations in the Master Regulator SinR on Bistability” (mBio, 2018).
# T1: SinR W104R (Bacillus subtilis, UniProt P06533 1-111, W104R)
# T1 sequence: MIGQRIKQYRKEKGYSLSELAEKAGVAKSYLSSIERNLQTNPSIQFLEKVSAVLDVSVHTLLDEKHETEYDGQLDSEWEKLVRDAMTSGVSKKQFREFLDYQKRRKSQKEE
# T2: SinR A85T (Bacillus subtilis, UniProt P06533 1-111, A85T)
# T2 sequence: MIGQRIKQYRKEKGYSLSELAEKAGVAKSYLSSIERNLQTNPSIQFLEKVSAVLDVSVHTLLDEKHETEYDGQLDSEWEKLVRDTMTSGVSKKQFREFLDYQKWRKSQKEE
# T3: SinR S43A (Bacillus subtilis, UniProt P06533 1-111, S43A)
# T3 sequence: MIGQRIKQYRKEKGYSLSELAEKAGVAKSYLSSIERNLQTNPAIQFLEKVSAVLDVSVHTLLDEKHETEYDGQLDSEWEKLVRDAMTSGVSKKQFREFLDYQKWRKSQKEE
# T4: SinR W104L (Bacillus subtilis, UniProt P06533 1-111, W104L)
# T4 sequence: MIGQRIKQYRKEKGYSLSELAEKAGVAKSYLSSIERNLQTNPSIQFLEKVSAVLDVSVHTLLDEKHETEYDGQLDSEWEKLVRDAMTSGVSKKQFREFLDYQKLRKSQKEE
# T5: SinR wild type (Bacillus subtilis, UniProt P06533 1-111)
# T5 sequence: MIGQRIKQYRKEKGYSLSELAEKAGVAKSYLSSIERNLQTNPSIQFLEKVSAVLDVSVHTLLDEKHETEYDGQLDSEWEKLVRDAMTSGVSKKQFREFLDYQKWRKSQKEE
# T6: SinR K28T (Bacillus subtilis, UniProt P06533 1-111, K28T)
# T6 sequence: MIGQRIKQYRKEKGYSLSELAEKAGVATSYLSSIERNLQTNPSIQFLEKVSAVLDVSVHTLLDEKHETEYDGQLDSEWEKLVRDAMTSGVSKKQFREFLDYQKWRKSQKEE
# B1: SinR^A85T (natural protein, B. subtilis)
# chain: MIGQRIKQYRKEKGYSLSELAEKAGVAKSYLSSIERNLQTNPSIQFLEKVSAVLDVSVHTLLDEKHETEYDGQLDSEWEKLVRDTMTSGVSKKQFREFLDYQKWRKSQKEE
# notes: SinR, Bacillus subtilis, with A85T; allele amplified from chromosomal DNA of the suppressor mutant with primer pair G8/G10, cloned in pET24a (NdeI/EcoRI); Spontaneous suppressor allele isolated in the laboratory from a ymdB mutant; source: E. coli BL21(DE3), purified (heparin Sepharose, size exclusion)
# B2: SinR^W104L (natural protein, B. subtilis)
# chain: MIGQRIKQYRKEKGYSLSELAEKAGVAKSYLSSIERNLQTNPSIQFLEKVSAVLDVSVHTLLDEKHETEYDGQLDSEWEKLVRDAMTSGVSKKQFREFLDYQKLRKSQKEE
# notes: SinR, Bacillus subtilis, with W104L; allele amplified from chromosomal DNA of the suppressor mutant with primer pair G8/G10, cloned in pET24a (NdeI/EcoRI); Spontaneous suppressor allele isolated in the laboratory from a ymdB mutant; source: E. coli BL21(DE3), purified (heparin Sepharose, size exclusion)
# B3: SinR^S43A (natural protein, B. subtilis)
# chain: MIGQRIKQYRKEKGYSLSELAEKAGVAKSYLSSIERNLQTNPAIQFLEKVSAVLDVSVHTLLDEKHETEYDGQLDSEWEKLVRDAMTSGVSKKQFREFLDYQKWRKSQKEE
# notes: SinR, Bacillus subtilis, with S43A; allele amplified from chromosomal DNA of the suppressor mutant with primer pair G8/G10, cloned in pET24a (NdeI/EcoRI); Spontaneous suppressor allele isolated in the laboratory from a ymdB mutant; source: E. coli BL21(DE3), purified (heparin Sepharose, size exclusion)
# B4: SinR^W104R (natural protein, B. subtilis)
# chain: MIGQRIKQYRKEKGYSLSELAEKAGVAKSYLSSIERNLQTNPSIQFLEKVSAVLDVSVHTLLDEKHETEYDGQLDSEWEKLVRDAMTSGVSKKQFREFLDYQKRRKSQKEE
# notes: SinR, Bacillus subtilis, with W104R; allele amplified from chromosomal DNA of the suppressor mutant with primer pair G8/G10, cloned in pET24a (NdeI/EcoRI); Spontaneous suppressor allele isolated in the laboratory from a ymdB mutant; source: E. coli BL21(DE3), purified (heparin Sepharose, size exclusion)
# Tests used:
# [1] = biological target: the molecule itself; experiment: SEC-MALS; SinR proteins at 5 mg/ml (equivalent to 400 µM), 150 µl on Superdex 200 Increase 10/300 GL, 50 mM Tris-HCl pH 8.0, 250 mM NaCl, 0.5 ml/min; refractive index at 25°C
# [2] = biological target: T1, SinR W104R; experiment: fluorescence polarization; 10 mM Tris-HCl pH 8.0, 100 mM NaCl, 1 mM EDTA; 10 nM labeled duplex, SinR diluted from 20 uM; temperature not stated; conditions: protein: recombinant; tags: none (pET24a, native stop codon in primer G10); chain copies: 2; label: 5'-fluorescein (FAM) on strand 1; blunt
# [3] = biological target: T2, SinR A85T; experiment: as above; conditions: protein: recombinant; tags: none (pET24a, native stop codon in primer G10); chain copies: 4; label: 5'-fluorescein (FAM) on strand 1; blunt
# [4] = biological target: T3, SinR S43A; experiment: as above; conditions: protein: recombinant; tags: none (pET24a, native stop codon in primer G10); chain copies: 4; label: 5'-fluorescein (FAM) on strand 1; blunt
# [5] = biological target: T4, SinR W104L; experiment: as above; conditions: protein: recombinant; tags: none (pET24a, native stop codon in primer G10); chain copies: 2; label: 5'-fluorescein (FAM) on strand 1; blunt
# [6] = biological target: T5, SinR wild type; experiment: as above; conditions: protein: recombinant; tags: none (pET24a, native stop codon in primer G10); chain copies: 4; label: 5'-fluorescein (FAM) on strand 1; blunt
# [7] = biological target: T6, SinR K28T; experiment: fluorescence polarization; no polarization change up to 20 uM protein; 10 mM Tris-HCl pH 8.0, 100 mM NaCl, 1 mM EDTA; 10 nM labeled duplex, SinR diluted from 20 uM; temperature not stated; conditions: protein: recombinant; tags: none (pET24a, native stop codon in primer G10); chain copies: 4; label: 5'-fluorescein (FAM) on strand 1; blunt
# [8] = biological target: B3; experiment: fluorescence polarisation; displacement of fluorescein-labelled 21-bp operator DNA (10 nM) from 5 µM SinR by SinI titrated from 50 µM to 10 nM; 10 mM Tris-HCl pH 8.0, 100 mM NaCl, 1 mM EDTA; qualitative; conditions: both partners purified
# [9] = biological target: B1; experiment: as above; conditions: both partners purified
# [10] = biological target: B2; experiment: as above; conditions: both partners purified
# [11] = biological target: B4; experiment: as above; conditions: both partners purified
binder,measurement,setting,value
"SinR wild type (natural protein, B. subtilis, SinR, master regulator of biofilm formation, Bacillus subtilis; sinR allele amplified from chromosomal DNA with primer pair G8/G10 and cloned between NdeI and EcoRI of pET24a; monomer printed as 12.85 kDa; The printed monomer mass of 12.85 kDa fits the whole protein of 111 residues; No tag is named and purification was by heparin and size exclusion; also called wild-type SinR; source: E. coli …) MIGQRIKQYRKEKGYSLSELAEKAGVAKSYLSSIERNLQTNPSIQFLEKVSAVLDVSVHTLLDEKHETEYDGQLDSEWEKLVRDAMTSGVSKKQFREFLDYQKWRKSQKEE",stoichiometry N,[1],4
B1,stoichiometry N,[1],4
B2,stoichiometry N,[1],2
"SinR^K28T (natural protein, B. subtilis, SinR, Bacillus subtilis, with K28T; allele amplified from chromosomal DNA of the suppressor mutant with primer pair G8/G10, cloned in pET24a (NdeI/EcoRI); Spontaneous suppressor allele isolated in the laboratory from a ymdB mutant; source: E. coli BL21(DE3), purified (heparin Sepharose, size exclusion)) MIGQRIKQYRKEKGYSLSELAEKAGVATSYLSSIERNLQTNPSIQFLEKVSAVLDVSVHTLLDEKHETEYDGQLDSEWEKLVRDAMTSGVSKKQFREFLDYQKWRKSQKEE",stoichiometry N,[1],4
B3,stoichiometry N,[1],4
B4,stoichiometry N,[1],2
"eps operator inverted-repeat SinR box duplex, 21 bp (FAM1721/C-1723) (dsDNA) DNA 1: ATTGTTCTCTAAAGAGAACTT DNA 2: AAGTTCTCTTTAGAGAACAAT",Kd,[2],2580 ± 545 nM
same,Kd,[3],852 ± 39 nM
same,Kd,[4],350 ± 81 nM
same,Kd,[5],1900 ± 298 nM
same,Kd,[6],179 ± 24 nM
same,binding result,[7],no binding
"SinI (natural protein, B. subtilis, UniProt P23308 1-57, looked up, SinI, antagonist of SinR, Bacillus subtilis; sinI gene amplified by PCR with primer pair G6/G7 and cloned into plasmid pC2; also called SinR antagonist SinI; source: E. coli BL21(DE3), purified (ANX ion exchange, size exclusion)) MKNAKQEHFELDQEWVELMVEAKEANISPEEIRKYLLLNKKSAHPGPAARSHTVNPF",binding result,[8],binds
same,binding result,[9],binds
same,percent of SinR-bound DNA released by a 10-fold molar excess of SinI,[10],~60%
same,percent of SinR-bound DNA released by a 10-fold molar excess of SinI,[11],~60%
